Consider one variant from PMC6768651, “A ubiquitin-like domain controls protein kinase D dimerization and activation by trans-autophosphorylation” (The Journal of Biological Chemistry, 2019).

B1: DKF-1 ULD (DKF-1^1–94) [C. elegans] / Atto488-labeled DKF-1 ULD^R42C [modified: Atto488 (maleimide-conjugated) on cysteine 42; Atto488 (maleimide-conjugated) on cysteine 42] [C. elegans] (parent complex)
chain 1: MDGSQGSTDYGDHVVLRYGGTREMVPLIRHEQMLDMLMERARQIVQGFGNLDTRNMYLFRHEYNSPTLLYPITSASQITSGSILEIILVDRTEA
chain 2: B1 chain 1 with R42C

Positions count from the first letter of the chain named. Numbers in names are those of the source.

The variants in the assay derive from B1. Kind of assay: fluorescence anisotropy; highest titration point: ULD F59E about 27 µM; parent value is the highest ULD WT point, about 20 µM; parent: 0.024; read off a plot. Background: Fluorescence polarisation rises when a labelled molecule tumbles more slowly, as on binding a larger partner.
For the variant chain 1 MDGSQGSTDYGDHVVLRYGGTREMVPLIRHEQMLDMLMERARQIVQGFGNLDTRNMYLERHEYNSPTLLYPITSASQITSGSILEIILVDRTEA [chain 1 F59E], the response is approximately 0.003.
